# Data as given in article PMC11402289, “Structural basis for RNA recognition by the C-terminal RRM domain of human RBM45”.
# T1: RBM45 RRM3 (Homo sapiens, UniProt Q8IUH3 370-476)
# T1 sequence: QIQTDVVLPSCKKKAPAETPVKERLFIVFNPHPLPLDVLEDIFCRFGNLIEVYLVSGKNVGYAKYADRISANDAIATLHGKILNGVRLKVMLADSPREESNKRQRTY
# Tests used:
# RBM45 RRM3 [1] = molecular target: T1, RBM45 RRM3; assay: fluorescence polarization; FP: 100 nM FAM-RNA/ssDNA, 10 mM Tris-HCl pH 7.5, 200 mM NaCl, 1 mM DTT, 1 mM EDTA, 5% glycerol, 25 °C, 30 min; settings: protein: recombinant; tags: C-terminal His-tag; label: 5'-FAM
# RBM45 RRM3 [2] = molecular target: T1, RBM45 RRM3; assay: fluorescence polarization; also printed as 33.6; FP: 100 nM FAM-RNA/ssDNA, 10 mM Tris-HCl pH 7.5, 200 mM NaCl, 1 mM DTT, 1 mM EDTA, 5% glycerol, 25 °C, 30 min; settings: protein: recombinant; tags: C-terminal His-tag; label: 5'-FAM
# RBM45 RRM3 [3] = molecular target: T1, RBM45 RRM3; assay: X-ray crystallography; 1.65 A; 0.1 M sodium succinate pH 5.3, 8% PEG 2000; FP: 100 nM FAM-RNA/ssDNA, 10 mM Tris-HCl pH 7.5, 200 mM NaCl, 1 mM DTT, 1 mM EDTA, 5% glycerol, 25 °C, 30 min; settings: protein: recombinant; tags: C-terminal His-tag
# RBM45 RRM3 [4] = molecular target: T1, RBM45 RRM3; assay: fluorescence polarization; m6A comparison experiment; FP: 100 nM FAM-RNA/ssDNA, 10 mM Tris-HCl pH 7.5, 200 mM NaCl, 1 mM DTT, 1 mM EDTA, 5% glycerol, 25 °C, 30 min; settings: protein: recombinant; tags: C-terminal His-tag; label: 5'-FAM
binder,measurement,setting,value
GGACGA (ssRNA),Kd,RBM45 RRM3 [1],1.16 ± 0.27 µM
UGACGG (ssRNA),Kd,RBM45 RRM3 [1],2.13 ± 0.37 µM
GGACGG (ssDNA) [GGACGG ssDNA],Kd,RBM45 RRM3 [1],8.77 ± 0.61 µM
GGACCG (ssRNA),Kd,RBM45 RRM3 [2],32.6 ± 6.22 µM
GGAGGG (ssRNA),Kd,RBM45 RRM3 [1],61.5 ± 45.7 µM
GGACGC (ssRNA),Kd,RBM45 RRM3 [1],1.08 ± 0.21 µM
GUACGG (ssRNA),Kd,RBM45 RRM3 [1],9.31 ± 1.93 µM
"GGACGG (ssRNA, m6A at position 3) [GG(m6A)CGG RNA]",Kd,RBM45 RRM3 [1],4.62 ± 0.55 µM
GCACGG (ssRNA),Kd,RBM45 RRM3 [1],8.88 ± 2.32 µM
GGACGU (ssRNA),Kd,RBM45 RRM3 [1],1.21 ± 0.26 µM
GACGCAG (ssDNA) [GACGCAG ssDNA],binding result,RBM45 RRM3 [3],binds
GGAUGG (ssRNA),Kd,RBM45 RRM3 [1],63.6 ± 12.1 µM
GGACUG (ssRNA),Kd,RBM45 RRM3 [1],15.3 ± 2.1 µM
UUUUUU (ssRNA) [polyU 6-mer RNA],Kd,RBM45 RRM3 [1],199 ± 114 µM
GAACGG (ssRNA),Kd,RBM45 RRM3 [1],10.2 ± 1.97 µM
GGAAGG (ssRNA),Kd,RBM45 RRM3 [1],91.6 ± 17.6 µM
GGCCGG (ssRNA),Kd,RBM45 RRM3 [1],71 ± 16.1 µM
AGACGG (ssRNA),Kd,RBM45 RRM3 [1],3.11 ± 0.48 µM
GGGCGG (ssRNA),Kd,RBM45 RRM3 [1],59.3 ± 21.2 µM
GGUCGG (ssRNA),Kd,RBM45 RRM3 [1],71.6 ± 16.9 µM
GGACGG (ssRNA) [GGACGG RNA],Kd,RBM45 RRM3 [1],2.34 ± 0.38 µM
same,Kd,RBM45 RRM3 [4],3.17 ± 0.3 µM
GGACAG (ssRNA),Kd,RBM45 RRM3 [1],28.1 ± 6.62 µM
CGACGG (ssRNA),Kd,RBM45 RRM3 [1],1.99 ± 0.35 µM
